This sample holds only a part of the variants without activity.

To fix the notation:
B1: TPR 5TU (parent)
chain: GGAUCUUCUCGAUCUAACAAAAAAGACAAAUCUGCCACAAAGCUUGAGAGCAUCUUCGGAUGCAGAGGCGGCAGCCUUCGGUGGCGCGAUAGCGCCAACGUUCUCAACUAUGACACGCAAAACGCGUGCUCCGUUGAAUGGAGUUUAUCAUG

The data set covers variants of B1. The data set is described as follows: polymerase ribozyme fitness, log enrichment relative to wild type (log ratio); higher = more active; in vitro selection for triplet polymerase activity. An outline of the steps: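 A heterodimeric triplet polymerase ribozyme had each of its subunits mutagenized by PCR into a library, which was transcribed. One round of in vitro selection, done in triplicate, annealed each library with a biotinylated primer, its partner subunit and triplets, then incubated it frozen at −7 °C before gel excision of extended constructs, streptavidin-bead capture and RT-PCR. Fitness is the logarithm of genotype enrichment relative to wild-type enrichment, based on Illumina sequencing of inputs and outputs and inverse-variance-weighted replicate averages. A base-2 logarithm is used, and genotypes were kept only with ≥10 input reads and ≥1 read per output.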
For A21U G59C G126U, the “polymerase ribozyme fitness (log ratio)” value stood at 0.721.

As to U45G U55G A91C U101A A107G, the “polymerase ribozyme fitness (log ratio)” value was no more than -4.2. Then G58U C132G, with -2.82; and G11U A23U, with no more than -4.2. With A37U A121G G152U, the “polymerase ribozyme fitness (log ratio)” value is -3.84. Regarding C51G A106G U144A, the “polymerase ribozyme fitness (log ratio)” value is -3.29.

Consider G50A G68A C96G C99U G136A, for which the “polymerase ribozyme fitness (log ratio)” value was no more than -4.2. Then C36U C96G, with -2.56; and A89G U146G C149G, with -4.1; and A28C G46C G84A C85U C96U C116U C149U, with no more than -4.2. As to U55A U61A C96A C116G, the “polymerase ribozyme fitness (log ratio)” value is -2.17. Then G86U C93G, with -1.28; and A3G A147U, with 1.09; and C38U G62A A113G G136A, with -2.45. Then C72G A91C, with no more than -4.2. Take A19U G46U A89C: the “polymerase ribozyme fitness (log ratio)” value is -2.83. Then C76A G84A, with -0.957. Then U55C G58U G124A, with -0.624; and A39C G68A G80A C118U G128U, with no more than -4.2; and G58C C63U A120C, with -0.534. Then A21U G68C C69G C116U, with no more than -4.2; and C51A U55G G58U C95A, with -1.74. In the case of A22G U130A, the “polymerase ribozyme fitness (log ratio)” value is -1.59. Then C14A A39U A73G C95G, with no more than -4.2; and G58U A97G A98G G117U U146G, with -0.542. Then U6G G128U, with -3.77; and C18U C132U U135A, with -2.33; and C14A A16G A20G U56A U82G A106G, with -3.04. Then C27U G58C C123U, with -1.57; and A26C A52G, with -1.25.

Turning to U61C G92A A120C C123A U144C, the “polymerase ribozyme fitness (log ratio)” value was no more than -4.2.

For U56A C85U A142U, the “polymerase ribozyme fitness (log ratio)” value is -1.06. As for U82G C99G, the “polymerase ribozyme fitness (log ratio)” value was -0.787. Then G58C G70C G141A, with no more than -4.2; and G46A G58A G83C, with -1.17; and U13G C14G U31A A41C G86A U90G G100A C131A, with no more than -4.2. Then A19C A107G, with -3.75; and A20C C93G, with -3.89. Then A41G C85A U101G, with -1.82. For the variant A3U A26G U61A G92A, the “polymerase ribozyme fitness (log ratio)” value was no more than -4.2.

For A26C C38G G68C C76U G84U U139G, the “polymerase ribozyme fitness (log ratio)” value was no more than -4.2. In the case of G50U C125G, the “polymerase ribozyme fitness (log ratio)” value is -0.442. Then U45A A91C C95G A142U, with no more than -4.2; and A21G A60G C63A C93G, with -3.23; and U55A A66C U77A C87A, with no more than -4.2. For the variant U53A C99U C116U, the “polymerase ribozyme fitness (log ratio)” value is -1.7. Then A39C U55A C118U, with -2.2; and C57G G143C, with -1.72; and A47U G80A A91C, with no more than -4.2. Then A19G A47C C57A C96U U101G C123U U145A, with -0.877; and C14G C63U G67C U77A C85A G124C, with no more than -4.2; and C76A C96U U145G, with -0.785. Then G58A C96A A97G A106C A119U, with -1.42; and A91C C125A U135C, with no more than -4.2; and C51U U56G A73C C79G C93G A137C, with no more than -4.2. With A41G U53A U56C C76A A98G, the “polymerase ribozyme fitness (log ratio)” value was -1.92. Then U82C U135C U146C, with -2.14; and A37U G68U C118A, with no more than -4.2. U55A C96G A115U A119G: the “polymerase ribozyme fitness (log ratio)” value was -2.42. Then U55A U61A C93U C103A, with no more than -4.2. Take A29U C51A G94A: the “polymerase ribozyme fitness (log ratio)” value was no more than -4.2.

Take U53A G80C G143U: the “polymerase ribozyme fitness (log ratio)” value is no more than -4.2. U44G G88C C108G U144C C149U: the “polymerase ribozyme fitness (log ratio)” value was no more than -4.2. Then A41C C57U C87G A98U G136U A147C, with no more than -4.2. Then A12G G81A G92A C114A G152U, with no more than -4.2. Then A12U U55A G59U A60G G94A, with -0.00322; and U56A A89G C99A, with -1.89; and G88U G141U, with -3.23. As to A28G G50C A122G U145C U148A, the “polymerase ribozyme fitness (log ratio)” value is no more than -4.2. Then C5U C51A G58A G81C, with -1.81; and C14G C43A G88U A110U G112C U127G, with no more than -4.2; and C18U C96U, with -0.659. Take A3G C14U G34A G48A C85A G126U G136A U144G: the “polymerase ribozyme fitness (log ratio)” value was no more than -4.2. Then G71U G83C, with -2.74; and C57U A97G, with -0.11. With A49U G83A U145A, the “polymerase ribozyme fitness (log ratio)” value was -1.1. Then A24U C35A A52U G84A G136A, with no more than -4.2; and A21C U55A, with -0.0725; and U55A U145C, with 0.505. As for C79U G84A C108A C114A C118A U139G, the “polymerase ribozyme fitness (log ratio)” value is no more than -4.2. Then G46C C72U G94A U102C A110G C125G A147C, with no more than -4.2. Then A19U U44A C95U C99G, with no more than -4.2; and C8U C27G A40G U78G C85G A98C A150G, with no more than -4.2. Then G58C C85A A110C U111G, with no more than -4.2.
